In EP1516629B1:

Key:
rhesus CD18 (rhesus) [1] = target: rhesus CD18 (rhesus) (UniProt H9Z8N5); assay: cell-based or functional assay
human CD18 (human) = human CD18 (human) (UniProt P05107); assay: cell-based or functional assay
rhesus CD18 (rhesus) [2] = target: rhesus CD18 (rhesus) (UniProt H9Z8N5); assay: saturation binding, rhesus leukocytes, donor 1, Kd(app)
rhesus CD18 (rhesus) [3] = target: rhesus CD18 (rhesus) (UniProt H9Z8N5); assay: saturation binding, rhesus leukocytes, donor 2, Kd(app)

human CD18 (human), sequence (P05107 23-769): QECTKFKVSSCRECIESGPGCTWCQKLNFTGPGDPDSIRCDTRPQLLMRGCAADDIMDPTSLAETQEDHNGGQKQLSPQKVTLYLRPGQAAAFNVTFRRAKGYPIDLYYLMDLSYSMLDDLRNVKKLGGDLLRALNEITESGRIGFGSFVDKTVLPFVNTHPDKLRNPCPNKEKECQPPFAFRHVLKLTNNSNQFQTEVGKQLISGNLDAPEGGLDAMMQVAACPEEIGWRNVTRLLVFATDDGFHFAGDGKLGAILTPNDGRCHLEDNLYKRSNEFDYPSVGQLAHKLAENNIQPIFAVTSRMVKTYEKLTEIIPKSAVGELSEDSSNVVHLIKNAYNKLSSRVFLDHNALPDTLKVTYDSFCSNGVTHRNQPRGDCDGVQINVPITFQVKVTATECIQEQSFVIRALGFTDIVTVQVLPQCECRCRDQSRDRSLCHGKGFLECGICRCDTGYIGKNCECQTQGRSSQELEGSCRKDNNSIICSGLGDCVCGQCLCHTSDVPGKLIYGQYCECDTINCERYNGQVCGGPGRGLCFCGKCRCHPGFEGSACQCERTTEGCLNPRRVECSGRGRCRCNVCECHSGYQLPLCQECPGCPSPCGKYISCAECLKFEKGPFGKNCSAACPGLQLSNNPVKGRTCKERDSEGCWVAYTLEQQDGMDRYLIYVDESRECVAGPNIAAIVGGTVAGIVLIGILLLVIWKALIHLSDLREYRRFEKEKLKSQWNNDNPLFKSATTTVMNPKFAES

For murine anti-human CD18 antibody MHM23, the IC50, blocking of cell adhesion, RhLy:HuICAM (rhesus CD18 (rhesus) [1]) was 1.2 nM, the IC50, blocking of cell adhesion, RhLy:HuK (rhesus CD18 (rhesus) [1]) was 1.6 nM and the IC50, blocking of cell adhesion, Rh/HuCD11a:HuK (human CD18 (human)) was 1.4 nM. The Kd (rhesus CD18 (rhesus) [2]) was 3.9 nM and the Kd (rhesus CD18 (rhesus) [3]) was 4.5 nM.
